Experimental data: the supplement of paper PMC11246515
± gives the standard deviation of the averaged measurements.

Assay: total protein half-life in vivo (active degradation + dilution); higher = more stable protein
[1] = E. coli NCM3722 delta-clpP delta-lon delta-hslV, growth: N-lim chemostat, doubling time 6 h
[2] = E. coli NCM3722 delta-clpP, growth: N-lim chemostat, doubling time 6 h
[3] = E. coli NCM3722 delta-hslV, growth: N-lim chemostat, doubling time 6 h
[4] = E. coli NCM3722 delta-lon, growth: N-lim chemostat, doubling time 6 h
[5] = E. coli NCM3722 delta-smpB, growth: N-lim chemostat, doubling time 6 h
[6] = wild type E. coli NCM3722, growth: C-lim chemostat, doubling time 3 h
[7] = wild type E. coli NCM3722, growth: C-lim chemostat, doubling time 6 h
[8] = wild type E. coli NCM3722, growth: C-lim chemostat, doubling time 12 h
[9] = wild type E. coli NCM3722, growth: N-lim chemostat, doubling time 6 h
[10] = wild type E. coli NCM3722, growth: N-lim chemostat, doubling time 12 h
[11] = wild type E. coli NCM3722, growth: P-lim chemostat, doubling time 6 h
[12] = wild type E. coli NCM3722, growth: P-lim chemostat, doubling time 12 h

Sequence	total protein half-life in vivo [1]	total protein half-life in vivo [2]	total protein half-life in vivo [3]	total protein half-life in vivo [4]	total protein half-life in vivo [5]	total protein half-life in vivo [6]	total protein half-life in vivo [7]	total protein half-life in vivo [8]	total protein half-life in vivo [9]	total protein half-life in vivo [10]	total protein half-life in vivo [11]	total protein half-life in vivo [12]
MTHLELVPVPPVAQLAGVSQHYGKTVALNNITLDIPARCMVGLIGPDGVGKSSLLSLISGARVIEQGNVMVLGGDMRDPKHRRDVCPRIAWMPQGLGKNLYHTLSVYENVDFFARLFGHDKAEREVRINELLTSTGLAPFRDRPAGKLSGGMKQKLGLCCALIHDPELLILDEPTTGVDPLSRSQFWDLIDSIRQRQSNMSVLVATAYMEEAERFDWLVAMNAGEVLATGSAEELRQQTQSATLEEAFINLLPQAQRQAHQAVVIPPYQPENAEIAIEARDLTMRFGSFVAVDHVNFRIPRGEIFGFLGSNGCGKSTTMKMLTGLLPASEGEAWLFGQPVDPKDIDTRRRVGYMSQAFSLYNELTVRQNLELHARLFHIPEAEIPARVAEMSERFKLNDVEDILPESLPLGIRQRLSLAVAVIHRPEMLILDEPTSGVDPVARDMFWQLMVDLSRQDKVTIFISTHFMNEAERCDRISLMHAGKVLASGTPQELVEKRGAASLEEAFIAYLQEAAGQSNEAEAPPVVHDTTHAPRQGFSLRRLFSYSRREALELRRDPVRSTLALMGTVILMLIMGYGISMDVENLRFAVLDRDQTVSSQAWTLNLSGSRYFIEQPPLTSYDELDRRMRAGDITVAIEIPPNFGRDIARGTPVELGVWIDGAMPSRAETVKGYVQAMHQSWLQDVASRQSTPASQSGLMNIETRYRYNPDVKSLPAIVPAVIPLLLMMIPSMLSALSVVREKELGSIINLYVTPTTRSEFLLGKQLPYIALGMLNFFLLCGLSVFVFGVPHKGSFLTLTLAALLYIIIATGMGLLISTFMKSQIAAIFGTAIITLIPATQFSGMIDPVASLEGPGRWIGEVYPTSHFLTIARGTFSKALDLTDLWQLFIPLLIAIPLVMGLSILLLKKQEG	6.26 ± 0.63 h	5.83 ± 0.27 h	5.89 ± 0.12 h	6.1709 ± 0.0027 h	5.63 ± 0.1 h	3.42 ± 0.3 h	5.34 h	13.5 ± 0.33 h	5.19 ± 0.17 h	11.8 ± 0.13 h	6.42 ± 0.41 h	13 ± 1.4 h
MALAMKVISQVEAQRKILEEAVSTALELASGKSDGAEVAVSKTTGISVSTRYGEVENVEFNSDGALGITVYHQNRKGSASSTDLSPQAIARTVQAALDIARYTSPDPCAGVADKELLAFDAPDLDLFHPAEVSPDEAIELAARAEQAALQADKRITNTEGGSFNSHYGVKVFGNSHGMLQGYCSTRHSLSSCVIAEENGDMERDYAYTIGRAMSDLQTPEWVGADCARRTLSRLSPRKLSTMKAPVIFANEVATGLFGHLVGAIAGGSVYRKSTFLLDSLGKQILPDWLTIEEHPHLLKGLASTPFDSEGVRTERRDIIKDGILTQWLLTSYSARKLGLKSTGHAGGIHNWRIAGQGLSFEQMLKEMGTGLVVTELMGQGVSAITGDYSRGAAGFWVENGEIQYPVSEITIAGNLKDMWRNIVTVGNDIETRSNIQCGSVLLPEMKIAGQ [P0AFK0]	4.58 ± 0.36 h	4.28 ± 0.05 h	4.07 ± 0.065 h	4.34 ± 0.1 h	4.12 ± 0.032 h	3.39 ± 0.57 h	5.59 ± 0.52 h	9.13 ± 0.67 h	4.27 ± 0.28 h	6.45 ± 0.34 h	5.5 ± 0.28 h	10.09 ± 0.033 h
MAKAPKRAFVCNECGADYPRWQGQCSACHAWNTITEVRLAASPMVARNERLSGYAGSAGVAKVQKLSDISLEELPRFSTGFKEFDRVLGGGVVPGSAILIGGNPGAGKSTLLLQTLCKLAQQMKTLYVTGEESLQQVAMRAHRLGLPTDNLNMLSETSIEQICLIAEEEQPKLMVIDSIQVMHMADVQSSPGSVAQVRETAAYLTRFAKTRGVAIVMVGHVTKDGSLAGPKVLEHCIDCSVLLDGDADSRFRTLRSHKNRFGAVNELGVFAMTEQGLREVSNPSAIFLSRGDEVTSGSSVMVVWEGTRPLLVEIQALVDHSMMANPRRVAVGLEQNRLAILLAVLHRHGGLQMADQDVFVNVVGGVKVTETSADLALLLAMVSSLRDRPLPQDLVVFGEVGLAGEIRPVPSGQERISEAAKHGFRRAIVPAANVPKKAPEGMQIFGVKKLSDALSVFDDL	4.95 ± 0.18 h	4.7 ± 0.74 h	4.63 ± 1.1 h	–	3.88 ± 0.27 h	2.88 ± 0.043 h	4.894 ± 0.039 h	8.52 ± 1.8 h	3.65 ± 0.14 h	5.76 ± 0.49 h	5.64 ± 0.66 h	10.2 ± 0.85 h
MSQQVIIFDTTLRDGEQALQASLSVKEKLQIALALERMGVDVMEVGFPVSSPGDFESVQTIARQVKNSRVCALARCVEKDIDVAAESLKVAEAFRIHTFIATSPMHIATKLRSTLDEVIERAIYMVKRARNYTDDVEFSCEDAGRTPIADLARVVEAAINAGATTINIPDTVGYTMPFEFAGIISGLYERVPNIDKAIISVHTHDDLGLAVGNSLAAVHAGARQVEGAMNGIGERAGNCSLEEVIMAIKVRKDILNVHTAINHQEIWRTSQLVSQICNMPIPANKAIVGSGAFAHSSGIHQDGVLKNRENYEIMTPESIGLNQIQLNLTSRSGRAAVKHRMDEMGYKESEYNLDNLYDAFLKLADKKGQVFDYDLEALAFIGKQQEEPEHFRLDYFSVQSGSNDIATAAVKLACGEEVKAEAANGNGPVDAVYQAINRITEYNVELVKYSLTAKGHGKDALGQVDIVANYNGRRFHGVGLATDIVESSAKAMVHVLNNIWRAAEVEKELQRKAQHNENNKETV	4.72 ± 0.57 h	4.48 ± 0.55 h	1.61 ± 0.08 h	1.77 ± 0.1 h	1.492 ± 0.0018 h	2.21 ± 0.067 h	3.71 ± 0.24 h	4.45 ± 0.23 h	1.63 ± 0.16 h	1.92 ± 0.043 h	3.83 ± 0.44 h	6.6 ± 0.52 h
MSLTRLLIRDFRNIETADLALSPGFNFLVGANGSGKTSVLEAIYTLGHGRAFRSLQIGRVIRHEQEAFVLHGRLQGEERETAIGLTKDKQGDSKVRIDGTDGHKVAELAHLMPMQLITPEGFTLLNGGPKYRRAFLDWGCFHNEPGFFTAWSNLKRLLKQRNAALRQVTRYEQLRPWDKELIPLAEQISTWRAEYSAGIAADMADTCKQFLPEFSLTFSFQRGWEKETEYAEVLERNFERDRQLTYTAHGPHKADLRIRADGAPVEDTLSRGQLKLLMCALRLAQGEFLTRESGRRCLYLIDDFASELDDERRGLLASRLKATQSQVFVSAISAEHVIDMSDENSKMFTVEKGKITD [P0A7H0]	5.54 ± 0.29 h	4.43 ± 0.14 h	3.95 ± 0.053 h	4.92 ± 0.21 h	3.93 ± 0.32 h	–	5.07 ± 0.41 h	9.88 ± 0.3 h	4.32 ± 0.1 h	8.32 ± 0.12 h	4.06 ± 1 h	7.31 ± 0.63 h
MENKSARAKVQAFGGFLTAMVIPNIGAFIAWGFITALFIPTGWLPNEHFAKIVGPMITYLLPVMIGSTGGHLVGGKRGAVMGGIGTIGVIVGAEIPMFLGSMIMGPLGGLVIKYVDKALEKRIPAGFEMVINNFSLGIAGMLLCLLGFEVIGPAVLIANTFVKECIEALVHAGYLPLLSVINEPAKVLFLNNAIDQGVYYPLGMQQASVNGKSIFFMVASNPGPGLGLLLAFTLFGKGMSKRSAPGAMIIHFLGGIHELYFPYVLMKPLTIIAMIAGGMSGTWMFNLLDGGLVAGPSPGSIFAYLALTPKGSFLATIAGVTVGTLVSFAITSLILKMEKTVETESEDEFAQSANAVKAMKQEGAFSLSRVKRIAFVCDAGMGSSAMGATTFRKRLEKAGLAIEVKHYAIENVPADADIVVTHASLEGRVKRVTDKPLILINNYIGDPKLDTLFNQLTAEHKH	–	–	–	–	–	2.08 h	3.65 h	8.89 h	–	–	–	–
MNIKGKALLAGCIALAFSNMALAEDIKVAVVGAMSGPVAQYGDQEFTGAEQAVADINAKGGIKGNKLQIVKYDDACDPKQAVAVANKVVNDGIKYVIGHLCSSSTQPASDIYEDEGILMITPAATAPELTARGYQLILRTTGLDSDQGPTAAKYILEKVKPQRIAIVHDKQQYGEGLARAVQDGLKKGNANVVFFDGITAGEKDFSTLVARLKKENIDFVYYGGYHPEMGQILRQARAAGLKTQFMGPEGVANVSLSNIAGESAEGLLVTKPKNYDQVPANKPIVDAIKAKKQDPSGAFVWTTYAALQSLQAGLNQSDDPAEIAKYLKANSVDTVMGPLTWDEKGDLKGFEFGVFDWHANGTATDAK [P0AD96]	6.22 ± 0.16 h	5.81 ± 0.64 h	6.127 ± 0.057 h	6.35 ± 0.39 h	5.96 ± 0.19 h	3.27 ± 0.18 h	6.24 ± 0.17 h	11.46 ± 0.034 h	6.02 ± 0.32 h	12.23 ± 0.02 h	5.67 ± 0.064 h	13 ± 0.45 h
